Blank lines part the entries; values can stand above or below the binder they belong to.
What was measured:
[1] = biological target: T1, rat TrkB extracellular domain expressed with a C-terminal myc-myc-hexahistidine tag (rat, UniProt Q63604 32-429); assay: SPR, mAb captured (anti-mFc), 25C; 25 C; rTrkB.mmH
T1 construct: also called rTrkB.mmH; rTRKB.mmH
Experimental: All binding studies were performed in 10 mM Hepes pH 7.4, 150 mM NaCl, 3 mM EDTA, and 0.05% v/v Surfactant Tween-20 (HBS-ET running buffer) at 25° C. and 37° C. […] Binding studies were performed on following TrkB reagents; human TrkB extracellular domain expressed with a C-terminal myc-myc-hexahistidine tag (hTRKB.mmH; SEQ ID NO: 76; Accession number NP_001018074.1), mouse TrkB extracellular domain expressed with a C-terminal myc-myc-hexahistidine tag (mTRKB.mmH; SEQ ID NO: 79; Accession number NP_001020245), rat TrkB extracellular domain expressed with a C-terminal myc-myc-hexahistidine tag (rTRKB.mmH; SEQ ID NO: 84; Accession number NP_036863.1), and human TrkB extracellular domain expressed with a C-terminal mouse IgG2a Fc tag (hTrkB-mFc; SEQ ID NO: 77; Accession number NP_001018074.1). […] Kinetic association (kₐ) and dissociation (kd) rate constants were determined by fitting the real-time binding sensorgrams to a 1:1 binding model with mass transport limitation using Scrubber 2.0c curve-fitting software. Binding dissociation equilibrium constants (KD) and dissociative half-lives (t½) were calculated from the kinetic rate constants as: […]

mouse TrkB.hFc = biological target: T2, mouse TrkB.hFc (mouse); assay: blocking ELISA: constant mouse TrkB.hFc (REGN2277) pre-mixed with antibody, binding to plate-coated BDNF
T2 construct: also called mTrkB.hFc; mTrkB-hFc
Experimental: (§1) Experiments were carried out using the following procedure. Human BDNF was coated at a concentration of 0.5 μg/mL (for blocking mouse TrkB.hFc interaction) or 0.3 μg/mL (for blocking rat TrkB.mmh interaction) in PBS on 96-well microtiter plate and incubated overnight at 4° C. […] In a 96-well dilution plate, 850 pM mouse TrkB.hFc or rat TrkB.mmh was mixed with the three-fold serially diluted anti-mouse TrkB antibodies and control antibody. The final antibody concentrations ranged from 1.69 pM to 100 nM. The protein-antibody mix was incubated at room temperature (RT) for 1 hour. The pre-bound mix was then transferred in duplicates to microtiter plates coated with BDNF. […] Plate-bound mouse TrkB.hFc was detected with HRP-conjugated goat anti-human Fcγ fragment specific antibody (Jackson Immunoresearch) and rat TrkB.mmh was detected with HRP-conjugated anti-histidine antibody (Qiagen). […]
(§2) The absorbance at 450 nm for each well was recorded and plotted as a function of the concentration of antibody. Data was analyzed in GraphPad Prism software using a four-parameter logistic equation over an 11-point dose response curve and IC₅₀ values were calculated. […] Percent blockade at maximum concentration of the antibody tested was calculated as an indicator of the ability of the antibodies to block the binding of TrkB to BDNF on the plate relative to the baseline of the assay. […]

[2] = biological target: T1, rat TrkB extracellular domain expressed …; assay: blocking ELISA: constant rat TrkB.mmh (REGN1808) pre-mixed with antibody, binding to plate-coated BDNF; half-maximal enhancement of the signal, not blockade
Experimental: as §1, §2

T1 sequence (Q63604 other isoform, or with tags, fused parts or gaps): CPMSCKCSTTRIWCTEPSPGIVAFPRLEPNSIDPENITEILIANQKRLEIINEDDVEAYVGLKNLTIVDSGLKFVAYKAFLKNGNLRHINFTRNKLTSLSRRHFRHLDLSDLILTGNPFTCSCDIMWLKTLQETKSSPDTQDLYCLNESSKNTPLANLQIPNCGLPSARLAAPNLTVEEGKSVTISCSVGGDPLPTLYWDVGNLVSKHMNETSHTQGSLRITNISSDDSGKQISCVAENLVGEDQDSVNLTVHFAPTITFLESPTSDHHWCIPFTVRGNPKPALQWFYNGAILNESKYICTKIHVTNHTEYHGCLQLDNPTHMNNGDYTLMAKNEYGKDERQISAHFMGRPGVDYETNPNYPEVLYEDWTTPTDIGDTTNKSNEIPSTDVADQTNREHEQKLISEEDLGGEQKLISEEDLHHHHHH
T2 sequence (chain, as listed by the source limits assumed): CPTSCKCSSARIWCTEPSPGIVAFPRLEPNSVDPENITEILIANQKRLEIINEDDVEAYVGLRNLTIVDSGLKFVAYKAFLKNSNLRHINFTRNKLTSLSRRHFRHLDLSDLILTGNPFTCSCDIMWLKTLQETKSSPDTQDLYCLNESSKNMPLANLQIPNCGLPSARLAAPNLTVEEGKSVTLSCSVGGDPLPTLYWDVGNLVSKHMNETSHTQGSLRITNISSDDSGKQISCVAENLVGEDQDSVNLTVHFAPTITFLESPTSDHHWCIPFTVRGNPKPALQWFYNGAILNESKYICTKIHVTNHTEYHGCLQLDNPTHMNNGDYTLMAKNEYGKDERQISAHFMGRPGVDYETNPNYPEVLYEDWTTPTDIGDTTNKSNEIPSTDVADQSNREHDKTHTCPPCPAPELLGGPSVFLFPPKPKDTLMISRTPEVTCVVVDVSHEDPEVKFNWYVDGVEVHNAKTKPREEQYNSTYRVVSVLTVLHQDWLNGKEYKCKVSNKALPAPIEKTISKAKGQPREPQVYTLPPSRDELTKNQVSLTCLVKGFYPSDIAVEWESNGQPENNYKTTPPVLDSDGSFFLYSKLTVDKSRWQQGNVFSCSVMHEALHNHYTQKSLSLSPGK

Kd [1]: 31.8 nM
B1: H1M8037C (antibody, mouse IgG1, kappa, V domains shown)
VH: QVQLVQSGAEVKKPGASVKVSCKASGYTFTNYDIIWVRQAPGQGLEWMGYINPYNDGTKYNEKFKGRVTMTRDTSTSTVYMELSSLRSEDTAVYYCARLLKYRRFRYYAIDYWGQGTTVTVSS
VL: DIQMTQSPSSLSASVGDRVTITCRTSENVYSNLAWYQQKPGKAPKLLIYAASNLQSGVPSRFSGSGSGTDYTFTISSLQPEDIATYYCQHFWGSPFTFGQGTKLEIKR
notes: captured by anti-mFc in SPR; also called Comparator; comparator anti-TrkB monoclonal antibody

IC50 (read off the curve) (mouse TrkB.hFc): ~0.1 nM
B2: M2aM14173N (antibody, mouse IgG2a, kappa, V domains shown)
VH: NVSLVESGGGSVKPGGSLQLSCAASGFTFSSSAMSWIRQTPEMRLEWVATISDRGSYTYYPDSVEGRFTISRDNAKNILYLQMSHLMSEDTAMYYCARGKGEKAYYTAFFAYWGQGSLVTVSA
VL: DIQMTQSPASLSASVGETVTITCRASENIYSYLAWYQQKPGKSPHLLVHNAETLAEGVPSRFSGSGSGPQFSLKINSLQPGDSGTYYCQHHYSSPWTFGGGTKLEIKR
notes: Anti-mouse TrkB antibody from hybridoma, mouse IgG2a Fc; also called surrogate anti-mouse TrkB antibody

EC50 (read off the curve) [2]: ~0.4 nM
B3: M2aM14179N (antibody, mouse IgG2a, kappa, V domains shown)
VH: EVQLQQSGPELVKPGASVKISCKASGYTLTDYYMNWVKQSHGKSLEWIGDINPNNGGTSYNQKFKGKATLTVDKSSSTAYMELRSLTSEDSAVYYCARGAYYSNYFDYWGQGTTLTVSS
VL: DIVMSQSPSSLAVSAGEKVTMSCKSSQSLLNSRTRKNYLAWYQQKPGQSPKLLIYWASTRESGVPDRFTGSGSGTDFTLTISSVQAEDLAVYYCKQSYILFTFGSGTQLEIKR
notes: as for B2

Reference: US20190161551A1 (Regeneron, published 2019)
